± gives the standard deviation of the averaged measurements.
B1: library; a variant is named by its letters at N, in order (parent)
chain: GCUGUCACCGGUGCUUGGUACGUUAUAUUCAGCCGGUCUGAUGAGUCUNNNNNNAGACGAAACAGC

Legend:
(6R,S)-folinic acid [1] = variants of: B1; assay: normalized RNA/DNA level without ligand (relative to sTRSVctl = 100) (log10 (% of sTRSVctl)); HEK293T overexpressing SLC46A1; higher = less ribozyme self-cleavage, higher mRNA level; settings: without (6R,S)-folinic acid; ligand present: no
In short: (§1)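 Total RNA, extracted with EDTA 72 h after HEK293T cells were transfected with 4 µg per 6-well well of reporter-linked ribozyme switch library plasmids, was reverse-transcribed, amplified, barcoded and sequenced. Ligand, if used, was added 1 h before transfection. RNA level was derived from RNA reads divided by DNA reads and normalized to a spiked-in non-cleaving sequence or to the top sequences. This was multiplied by 100 and log10-transformed, with the top set of 25 sequences and a ≥100 DNA read minimum.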

(6R,S)-folinic acid [2] = variants of: B1; assay: normalized RNA/DNA level with ligand (relative to sTRSVctl = 100) (log10 (% of sTRSVctl)); HEK293T overexpressing SLC46A1; ligand concentration (+) RNA-Seq: 6 mM; higher = less ribozyme self-cleavage, higher mRNA level; settings: with (6R,S)-folinic acid; ligand present: yes
In short: as §1

| Variant | normalized RNA/DNA level without ligand (log10) ((6R,S)-folinic acid [1]) | normalized RNA/DNA level with ligand (log10) ((6R,S)-folinic acid [2]) |
| --- | --- | --- |
| GCUGUCACCGGUGCUUGGUACGUUAUAUUCAGCCGGUCUGAUGAGUCUACCACUAGACGAAACAGC [ACCACU] | 2.029 ± 0.0042 | 1.99 ± 0.066 |
| GCUGUCACCGGUGCUUGGUACGUUAUAUUCAGCCGGUCUGAUGAGUCUUCCACUAGACGAAACAGC [UCCACU] | 2.041 ± 0.0029 | 2.052 ± 0.014 |
| GCUGUCACCGGUGCUUGGUACGUUAUAUUCAGCCGGUCUGAUGAGUCUCCCAGAAGACGAAACAGC [CCCAGA] | 2.0467 ± 0.00053 | 2.029 ± 0.012 |
| GCUGUCACCGGUGCUUGGUACGUUAUAUUCAGCCGGUCUGAUGAGUCUACCAGAAGACGAAACAGC [ACCAGA] | 2.019 ± 0.013 | 2.05 ± 0.033 |
| GCUGUCACCGGUGCUUGGUACGUUAUAUUCAGCCGGUCUGAUGAGUCUCCCAGCAGACGAAACAGC [CCCAGC] | 2.06 ± 0.035 | 2.06 ± 0.068 |
| GCUGUCACCGGUGCUUGGUACGUUAUAUUCAGCCGGUCUGAUGAGUCUACCAGCAGACGAAACAGC [ACCAGC] | 2.071 ± 0.0016 | 2.06 ± 0.038 |
| GCUGUCACCGGUGCUUGGUACGUUAUAUUCAGCCGGUCUGAUGAGUCUUCCAGCAGACGAAACAGC [UCCAGC] | 2.035 ± 0.016 | 2.03 ± 0.022 |
| GCUGUCACCGGUGCUUGGUACGUUAUAUUCAGCCGGUCUGAUGAGUCUCCCAGGAGACGAAACAGC [CCCAGG] | 2.042 ± 0.006 | 2.01 ± 0.025 |
| GCUGUCACCGGUGCUUGGUACGUUAUAUUCAGCCGGUCUGAUGAGUCUACCAGGAGACGAAACAGC [ACCAGG] | 1.9569 ± 0.0006 | 2 ± 0.024 |
| GCUGUCACCGGUGCUUGGUACGUUAUAUUCAGCCGGUCUGAUGAGUCUCCCAGUAGACGAAACAGC [CCCAGU] | 2.05 ± 0.038 | 2.034 ± 0.02 |
| GCUGUCACCGGUGCUUGGUACGUUAUAUUCAGCCGGUCUGAUGAGUCUGCCAGUAGACGAAACAGC [GCCAGU] | 2.056 ± 0.0089 | 2.049 ± 0.015 |
| GCUGUCACCGGUGCUUGGUACGUUAUAUUCAGCCGGUCUGAUGAGUCUACCAGUAGACGAAACAGC [ACCAGU] | 2.005 ± 0.0042 | 2.02 ± 0.013 |
| GCUGUCACCGGUGCUUGGUACGUUAUAUUCAGCCGGUCUGAUGAGUCUUCCAGUAGACGAAACAGC [UCCAGU] | 1.94 ± 0.029 | 1.99 ± 0.029 |
| GCUGUCACCGGUGCUUGGUACGUUAUAUUCAGCCGGUCUGAUGAGUCUCCCAUAAGACGAAACAGC [CCCAUA] | 2.02 ± 0.036 | 2.03 ± 0.05 |
| GCUGUCACCGGUGCUUGGUACGUUAUAUUCAGCCGGUCUGAUGAGUCUGCCAUAAGACGAAACAGC [GCCAUA] | 2.016 ± 0.0031 | 2.02 ± 0.052 |
| GCUGUCACCGGUGCUUGGUACGUUAUAUUCAGCCGGUCUGAUGAGUCUACCAUAAGACGAAACAGC [ACCAUA] | 1.988 ± 0.0064 | 2.013 ± 0.019 |
| GCUGUCACCGGUGCUUGGUACGUUAUAUUCAGCCGGUCUGAUGAGUCUUCCAUAAGACGAAACAGC [UCCAUA] | 1.972 ± 0.0018 | 1.98 ± 0.042 |
| GCUGUCACCGGUGCUUGGUACGUUAUAUUCAGCCGGUCUGAUGAGUCUGCCAUCAGACGAAACAGC [GCCAUC] | 2.02 ± 0.031 | 2 ± 0.032 |
| GCUGUCACCGGUGCUUGGUACGUUAUAUUCAGCCGGUCUGAUGAGUCUACCAUCAGACGAAACAGC [ACCAUC] | 2.044 ± 0.011 | 2.02 ± 0.04 |
| GCUGUCACCGGUGCUUGGUACGUUAUAUUCAGCCGGUCUGAUGAGUCUUCCAUCAGACGAAACAGC [UCCAUC] | 2.036 ± 0.018 | 2.01 ± 0.051 |
| GCUGUCACCGGUGCUUGGUACGUUAUAUUCAGCCGGUCUGAUGAGUCUCCCAUGAGACGAAACAGC [CCCAUG] | 2.044 ± 0.0075 | 2 ± 0.033 |

| Variant | normalized RNA/DNA level without ligand (log10) ((6R,S)-folinic acid [1]) | normalized RNA/DNA level with ligand (log10) ((6R,S)-folinic acid [2]) |
| --- | --- | --- |
| GCUGUCACCGGUGCUUGGUACGUUAUAUUCAGCCGGUCUGAUGAGUCUACCAUGAGACGAAACAGC [ACCAUG] | 1.982 ± 0.012 | 2.016 ± 0.0077 |
| GCUGUCACCGGUGCUUGGUACGUUAUAUUCAGCCGGUCUGAUGAGUCUUCCAUGAGACGAAACAGC [UCCAUG] | 1.857 ± 0.005 | 1.97 ± 0.053 |
| GCUGUCACCGGUGCUUGGUACGUUAUAUUCAGCCGGUCUGAUGAGUCUCCCAUUAGACGAAACAGC [CCCAUU] | 2.09 ± 0.024 | 2.079 ± 0.01 |
| GCUGUCACCGGUGCUUGGUACGUUAUAUUCAGCCGGUCUGAUGAGUCUGCCAUUAGACGAAACAGC [GCCAUU] | 2.041 ± 0.0051 | 2.008 ± 0.015 |
| GCUGUCACCGGUGCUUGGUACGUUAUAUUCAGCCGGUCUGAUGAGUCUACCAUUAGACGAAACAGC [ACCAUU] | 2.02 ± 0.03 | 2.044 ± 0.0061 |
| GCUGUCACCGGUGCUUGGUACGUUAUAUUCAGCCGGUCUGAUGAGUCUUCCAUUAGACGAAACAGC [UCCAUU] | 2.033 ± 0.011 | 2.006 ± 0.006 |
| GCUGUCACCGGUGCUUGGUACGUUAUAUUCAGCCGGUCUGAUGAGUCUCCCCAAAGACGAAACAGC [CCCCAA] | 2.0237 ± 0.0015 | 1.999 ± 0.0078 |
| GCUGUCACCGGUGCUUGGUACGUUAUAUUCAGCCGGUCUGAUGAGUCUGCCCAAAGACGAAACAGC [GCCCAA] | 2.03 ± 0.014 | 2.02 ± 0.042 |
| GCUGUCACCGGUGCUUGGUACGUUAUAUUCAGCCGGUCUGAUGAGUCUACCCAAAGACGAAACAGC [ACCCAA] | 2.02 ± 0.024 | 2.018 ± 0.013 |
| GCUGUCACCGGUGCUUGGUACGUUAUAUUCAGCCGGUCUGAUGAGUCUUCCCAAAGACGAAACAGC [UCCCAA] | 1.981 ± 0.011 | 1.97 ± 0.024 |
| GCUGUCACCGGUGCUUGGUACGUUAUAUUCAGCCGGUCUGAUGAGUCUCCCCACAGACGAAACAGC [CCCCAC] | 2.04 ± 0.022 | 2.05 ± 0.037 |
| GCUGUCACCGGUGCUUGGUACGUUAUAUUCAGCCGGUCUGAUGAGUCUGCCCACAGACGAAACAGC [GCCCAC] | 2.02 ± 0.011 | 2.01 ± 0.034 |
| GCUGUCACCGGUGCUUGGUACGUUAUAUUCAGCCGGUCUGAUGAGUCUACCCACAGACGAAACAGC [ACCCAC] | 2.02 ± 0.016 | 2 ± 0.044 |
| GCUGUCACCGGUGCUUGGUACGUUAUAUUCAGCCGGUCUGAUGAGUCUUCCCACAGACGAAACAGC [UCCCAC] | 2.026 ± 0.012 | 2.02 ± 0.043 |
| GCUGUCACCGGUGCUUGGUACGUUAUAUUCAGCCGGUCUGAUGAGUCUCCCCAGAGACGAAACAGC [CCCCAG] | 2.004 ± 0.019 | 2.038 ± 0.012 |
| GCUGUCACCGGUGCUUGGUACGUUAUAUUCAGCCGGUCUGAUGAGUCUGCCCAGAGACGAAACAGC [GCCCAG] | 2 ± 0.028 | 2 ± 0.059 |
| GCUGUCACCGGUGCUUGGUACGUUAUAUUCAGCCGGUCUGAUGAGUCUACCCAGAGACGAAACAGC [ACCCAG] | 1.98 ± 0.01 | 2 ± 0.044 |
| GCUGUCACCGGUGCUUGGUACGUUAUAUUCAGCCGGUCUGAUGAGUCUUCCCAGAGACGAAACAGC [UCCCAG] | 1.962 ± 0.014 | 2.04 ± 0.03 |
| GCUGUCACCGGUGCUUGGUACGUUAUAUUCAGCCGGUCUGAUGAGUCUCCCCAUAGACGAAACAGC [CCCCAU] | 2.031 ± 0.01 | 2.03 ± 0.045 |
| GCUGUCACCGGUGCUUGGUACGUUAUAUUCAGCCGGUCUGAUGAGUCUGCCCAUAGACGAAACAGC [GCCCAU] | 2.014 ± 0.0026 | 2.02 ± 0.061 |
